The results in this text go back to doi:10.1101/2022.03.18.484894, “Molecular determinants of the Bacillus subtilis chromosome origin basal unwinding system”.

One data set concerns the target DnaA R264A (Bacillus subtilis, UniProt P05648 1-446, R264A). The experiment in a line: EMSA; smaller complex that enters the gel; EMSA: 13 nM scaffold, 250-1000 nM DnaA, 10 mM HEPES-KOH pH 8, 100 mM K-glutamate, 1 mM Mg acetate, 30% glycerol, 10% DMSO, 1 mM ADP or ATP, 20 C, 3 h; 6% PAGE with 5 mM MgCl2. The settings on record: protein: recombinant; tags: none after cleavage of His14-SUMO; label: 5'-Cy3 on strand 1 (oHM752); 5'-Cy5 on strand 2 (oHM590); three-strand duplex: strands 1 and 2 adjacent (nick) on 41-nt strand 3, blunt. (In general: A gel shift assay detects complexes by their altered migration in electrophoresis.)

The target of data set [1] is T1, DnaA (Bacillus subtilis, UniProt P05648 1-446). The data set is described as follows: EMSA; ATP; large complex near the well plus strand separation; EMSA: 13 nM scaffold, 250-1000 nM DnaA, 10 mM HEPES-KOH pH 8, 100 mM K-glutamate, 1 mM Mg acetate, 30% glycerol, 10% DMSO, 1 mM ADP or ATP, 20 C, 3 h; 6% PAGE with 5 mM MgCl2. The settings on record: protein: recombinant; tags: none after cleavage of His14-SUMO; label: 5'-Cy3 on strand 1 (oHM752); 5'-Cy5 on strand 2 (oHM590); three-strand duplex: strands 1 and 2 adjacent (nick) on 41-nt strand 3, blunt.

Data set [2] addresses T1, DnaA. The data set is described as follows: EMSA; ATP; large complexes enter the gel poorly; EMSA: 13 nM scaffold, 250-1000 nM DnaA, 10 mM HEPES-KOH pH 8, 100 mM K-glutamate, 1 mM Mg acetate, 30% glycerol, 10% DMSO, 1 mM ADP or ATP, 20 C, 3 h; 6% PAGE with 5 mM MgCl2. The settings on record: protein: recombinant; tags: none after cleavage of His14-SUMO; label: Cy3 on annealed strand; Cy5 on separated strand; three-strand scaffold.

B1: B. subtilis WT BUS scaffold (EMSA substrate) (dsDNA)
DNA 1: ACTTATCCACAAATCCACAGGCCC
DNA 2: TACTATTACTTCTACTA
DNA 3: TAGTAGAAGTAATAGTAGGGCCTGTGGATTTGTGGATAAGT
Consider B1, for which the binding result with DnaA R264A and in the data set with DnaA [1] was “binds” throughout.

B2: BUS scaffold with phosphorothioate backbone (EMSA) (XNA)
DNA 1: ACTTATCCACAAATCCACAGGCC
DNA 2: CTACTATTACTTCTACTA
DNA 3: B1 DNA 3
modifications: phosphorothioate linkages in the DnaA-trio region; exact positions of the EMSA version not stated
Turning to B2, in the data set with DnaA [2], the binding result is given as “binds”.
